# Laboratory results reported in PMC9482650, “Quantitative fragmentomics allow affinity mapping of interactomes” (Nature Communications, 2022).
# T1: SNTB1, Q13884
# T1 sequence (Q13884 107-205, limits assumed, looked up): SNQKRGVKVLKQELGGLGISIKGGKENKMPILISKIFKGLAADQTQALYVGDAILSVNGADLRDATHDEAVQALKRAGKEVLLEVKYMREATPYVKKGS
# T2: HTRA3, P83110
# T2 sequence (P83110 354-453, limits assumed, looked up): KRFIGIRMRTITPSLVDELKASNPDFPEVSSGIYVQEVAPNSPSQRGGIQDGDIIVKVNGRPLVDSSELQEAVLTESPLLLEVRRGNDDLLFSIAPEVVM
# T3: DVL3, Q92997
# T3 sequence (Q92997 244-331, limits assumed, looked up): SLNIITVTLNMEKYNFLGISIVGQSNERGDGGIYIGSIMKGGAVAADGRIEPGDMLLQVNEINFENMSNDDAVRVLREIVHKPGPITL
# T4: MPP7, Q5T2T1
# T4 sequence (Q5T2T1 134-230, limits assumed, looked up): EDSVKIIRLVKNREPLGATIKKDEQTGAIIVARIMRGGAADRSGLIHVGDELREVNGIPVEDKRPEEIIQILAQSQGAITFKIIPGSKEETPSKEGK
# T5: TJP3_3, O95049
# T5 sequence (O95049 375-456, limits assumed, looked up): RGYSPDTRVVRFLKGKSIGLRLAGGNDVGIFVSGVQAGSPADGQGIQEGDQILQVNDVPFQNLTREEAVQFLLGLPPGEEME
# T6: CARD11, Q9BXL7
# T6 sequence (Q9BXL7 662-765, limits assumed, looked up): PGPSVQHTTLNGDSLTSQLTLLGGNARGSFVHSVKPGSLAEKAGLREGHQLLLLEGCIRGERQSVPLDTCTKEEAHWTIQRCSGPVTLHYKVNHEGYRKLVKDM
# T7: GRIP1_5, Q9Y3R0
# T7 sequence (Q9Y3R0 568-668, limits assumed, looked up): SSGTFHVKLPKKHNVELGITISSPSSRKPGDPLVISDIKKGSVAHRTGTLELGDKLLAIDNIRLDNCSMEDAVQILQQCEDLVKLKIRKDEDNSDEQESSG
# T8: LRRC7, Q96NW7
# T8 sequence (Q96NW7 1440-1537, limits assumed, looked up): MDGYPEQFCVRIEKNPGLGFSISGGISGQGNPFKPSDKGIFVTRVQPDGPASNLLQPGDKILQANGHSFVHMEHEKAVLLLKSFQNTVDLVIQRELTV
# T9: APBA3_1, O96018
# T9 sequence (O96018 389-490, limits assumed, looked up): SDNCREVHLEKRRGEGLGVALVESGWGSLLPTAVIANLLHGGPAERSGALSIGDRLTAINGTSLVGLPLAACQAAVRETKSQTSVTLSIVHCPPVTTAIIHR
# T10: LNX2_3, Q8N448
# T10 sequence (Q8N448 463-564, limits assumed, looked up): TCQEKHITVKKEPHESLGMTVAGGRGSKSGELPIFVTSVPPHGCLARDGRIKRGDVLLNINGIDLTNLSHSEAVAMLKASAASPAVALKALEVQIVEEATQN
# Legend:
# Experiment in all cases: holdup assay
# Set-up in all cases: key: below the threshold = too weak to quantify, mostly under pKd 3.1 to 4
# SNTB1, Q13884 = molecular target: T1, SNTB1, Q13884
# TJP1_3, Q07157 = molecular target: TJP1_3, Q07157
# HTRA3, P83110 = molecular target: T2, HTRA3, P83110
# LAP2, Q96RT1 = molecular target: LAP2, Q96RT1
# MAGI3_2, Q5TCQ9 = molecular target: MAGI3_2, Q5TCQ9
# LNX1_2, Q8TBB1 = molecular target: LNX1_2, Q8TBB1
# PDZRN4_1, Q6ZMN7 = molecular target: PDZRN4_1, Q6ZMN7
# DVL3, Q92997 = molecular target: T3, DVL3, Q92997
# GOPC, Q9HD26 = molecular target: GOPC, Q9HD26
# MPP7, Q5T2T1 = molecular target: T4, MPP7, Q5T2T1
# HTRA1, Q92743 = molecular target: HTRA1, Q92743
# DLG4_3, P78352 = molecular target: DLG4_3, P78352
# GORASP2, Q9H8Y8 = molecular target: GORASP2, Q9H8Y8
# HTRA2, O43464 = molecular target: HTRA2, O43464
# TJP3_3, O95049 = molecular target: T5, TJP3_3, O95049
# NHERF4_1, Q86UT5-2 = molecular target: NHERF4_1, Q86UT5-2
# FRMPD3, Q5JV73 = molecular target: FRMPD3, Q5JV73
# LNX1_1, Q8TBB1 = molecular target: LNX1_1, Q8TBB1
# CARD11, Q9BXL7 = molecular target: T6, CARD11, Q9BXL7
# GRIP2_6, Q9C0E4 = molecular target: GRIP2_6, Q9C0E4
# Inadl_6, Q8NI35 = molecular target: Inadl_6, Q8NI35
# GRIP1_5, Q9Y3R0 = molecular target: T7, GRIP1_5, Q9Y3R0
# DLG2_2, Q15700 = molecular target: DLG2_2, Q15700
# GRIP2_4, Q9C0E4 = molecular target: GRIP2_4, Q9C0E4
# LRRC7, Q96NW7 = molecular target: T8, LRRC7, Q96NW7
# APBA3_1, O96018 = molecular target: T9, APBA3_1, O96018
# LNX2_3, Q8N448 = molecular target: T10, LNX2_3, Q8N448
# [1] = plain residues with an end cap or a label only (N-terminal biotin on a linker: ttds)
# [2] = plain residues with an end cap or a label only (N-terminal biotin on a linker: ahx)
# Sequence of GRIP2_4, Q9C0E4 (Q9C0E4 446-548): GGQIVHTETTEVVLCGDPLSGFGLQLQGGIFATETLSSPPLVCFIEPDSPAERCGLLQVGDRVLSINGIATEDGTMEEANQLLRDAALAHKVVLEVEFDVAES
# Sequence of NHERF4_1, Q86UT5-2 (Q86UT5 other isoform, or with tags, fused parts or gaps): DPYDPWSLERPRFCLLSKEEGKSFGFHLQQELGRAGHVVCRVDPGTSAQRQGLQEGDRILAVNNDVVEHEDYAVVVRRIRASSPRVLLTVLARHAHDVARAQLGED
# Sequence of HTRA1, Q92743 (Q92743 360-477): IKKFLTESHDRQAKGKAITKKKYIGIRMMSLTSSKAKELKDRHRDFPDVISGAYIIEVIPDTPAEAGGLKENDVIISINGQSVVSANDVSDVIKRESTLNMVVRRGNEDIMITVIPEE
# Sequence of DLG4_3, P78352 (P78352 306-403): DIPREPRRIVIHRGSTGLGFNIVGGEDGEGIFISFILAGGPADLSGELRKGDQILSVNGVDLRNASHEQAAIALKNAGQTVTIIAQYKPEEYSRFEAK
# Sequence of PDZRN4_1, Q6ZMN7 (Q6ZMN7 213-318): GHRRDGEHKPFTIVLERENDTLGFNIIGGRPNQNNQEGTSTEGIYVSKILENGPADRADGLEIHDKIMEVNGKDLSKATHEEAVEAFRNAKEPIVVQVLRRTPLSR
# Sequence of LNX1_2, Q8TBB1 (Q8TBB1 371-470): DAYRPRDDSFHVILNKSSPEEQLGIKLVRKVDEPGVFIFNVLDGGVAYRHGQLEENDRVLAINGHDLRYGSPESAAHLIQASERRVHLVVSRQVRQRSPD
# Sequence of MAGI3_2, Q5TCQ9 (Q5TCQ9 398-503): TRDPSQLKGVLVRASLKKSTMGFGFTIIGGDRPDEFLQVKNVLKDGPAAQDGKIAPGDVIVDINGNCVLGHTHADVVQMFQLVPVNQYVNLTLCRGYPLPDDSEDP
# Sequence of FRMPD3, Q5JV73 (Q5JV73 12-100): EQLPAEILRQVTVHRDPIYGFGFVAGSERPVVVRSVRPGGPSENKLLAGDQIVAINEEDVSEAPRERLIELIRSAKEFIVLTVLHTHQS
# Sequence of GRIP2_6, Q9C0E4 (Q9C0E4 648-740): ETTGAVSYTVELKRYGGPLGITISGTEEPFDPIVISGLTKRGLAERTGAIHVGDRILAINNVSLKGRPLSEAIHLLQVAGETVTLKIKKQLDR
# Sequence of HTRA2, O43464 (O43464 355-458): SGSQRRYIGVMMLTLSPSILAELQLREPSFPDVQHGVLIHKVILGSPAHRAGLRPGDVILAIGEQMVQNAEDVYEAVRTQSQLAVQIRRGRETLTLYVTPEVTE
# Sequence of LAP2, Q96RT1 (Q96RT1 other isoform, or with tags, fused parts or gaps): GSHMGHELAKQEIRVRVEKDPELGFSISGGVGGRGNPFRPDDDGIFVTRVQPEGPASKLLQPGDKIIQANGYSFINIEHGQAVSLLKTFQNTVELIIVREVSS
# Sequence of TJP1_3, Q07157 (Q07157 416-512): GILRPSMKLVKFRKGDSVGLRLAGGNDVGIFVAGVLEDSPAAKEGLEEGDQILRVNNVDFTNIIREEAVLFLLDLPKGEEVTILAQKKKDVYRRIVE
# Sequence of LNX1_1, Q8TBB1 (Q8TBB1 261-371): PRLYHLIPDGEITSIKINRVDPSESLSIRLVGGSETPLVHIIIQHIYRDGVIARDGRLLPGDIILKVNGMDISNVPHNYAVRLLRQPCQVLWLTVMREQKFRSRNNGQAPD
# Sequence of DLG2_2, Q15700 (Q15700 189-283): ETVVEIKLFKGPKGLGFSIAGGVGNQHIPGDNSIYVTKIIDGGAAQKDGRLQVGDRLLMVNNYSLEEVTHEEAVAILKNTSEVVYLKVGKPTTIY
# Sequence of Inadl_6, Q8NI35 (Q8NI35 1058-1167): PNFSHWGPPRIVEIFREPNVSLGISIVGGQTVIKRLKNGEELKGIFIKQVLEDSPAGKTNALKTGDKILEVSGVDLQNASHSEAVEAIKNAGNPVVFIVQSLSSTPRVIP
binder,measurement,setting,value
"IQREDQETAV [DGKZ, Q13574]",pKd,"SNTB1, Q13884; [1]",5.29
same,pKd,"TJP1_3, Q07157; [1]",below the threshold
same,pKd,"HTRA3, P83110; [1]",below the threshold
same,pKd,"LAP2, Q96RT1; [1]",4.54
same,pKd,"MAGI3_2, Q5TCQ9; [1]",4.85
same,pKd,"LNX1_2, Q8TBB1; [1]",below the threshold
same,pKd,"PDZRN4_1, Q6ZMN7; [1]",4.81
same,pKd,"DVL3, Q92997; [1]",below the threshold
same,pKd,"GOPC, Q9HD26; [1]",3.86
same,pKd,"MPP7, Q5T2T1; [1]",below the threshold
same,pKd,"HTRA1, Q92743; [1]",3.96
same,pKd,"DLG4_3, P78352; [1]",3.84
same,pKd,"GORASP2, Q9H8Y8; [1]",below the threshold
same,pKd,"HTRA2, O43464; [1]",below the threshold
same,pKd,"TJP3_3, O95049; [1]",below the threshold
same,pKd,"NHERF4_1, Q86UT5-2; [1]",below the threshold
same,pKd,"FRMPD3, Q5JV73; [1]",below the threshold
same,pKd,"LNX1_1, Q8TBB1; [1]",below the threshold
same,pKd,"CARD11, Q9BXL7; [1]",below the threshold
same,pKd,"GRIP2_6, Q9C0E4; [1]",below the threshold
same,pKd,"Inadl_6, Q8NI35; [1]",4.02
same,pKd,"GRIP1_5, Q9Y3R0; [1]",below the threshold
same,pKd,"DLG2_2, Q15700; [1]",4.69
same,pKd,"GRIP2_4, Q9C0E4; [1]",below the threshold
same,pKd,"LRRC7, Q96NW7; [1]",below the threshold
same,pKd,"APBA3_1, O96018; [1]",below the threshold
same,pKd,"LNX2_3, Q8N448; [1]",below the threshold
"KTSAHHATFV [RGS12, O14924]",pKd,"SNTB1, Q13884; [2]",3.47
same,pKd,"TJP1_3, Q07157; [2]",below the threshold
same,pKd,"HTRA3, P83110; [2]",4.42
same,pKd,"LAP2, Q96RT1; [2]",4.34
same,pKd,"MAGI3_2, Q5TCQ9; [2]",4.72
same,pKd,"LNX1_2, Q8TBB1; [2]",3.54
same,pKd,"PDZRN4_1, Q6ZMN7; [2]",below the threshold
same,pKd,"DVL3, Q92997; [2]",3.56
same,pKd,"GOPC, Q9HD26; [2]",3.53
same,pKd,"MPP7, Q5T2T1; [2]",below the threshold
same,pKd,"HTRA1, Q92743; [2]",4.43
same,pKd,"DLG4_3, P78352; [2]",below the threshold
same,pKd,"GORASP2, Q9H8Y8; [2]",4.12
same,pKd,"HTRA2, O43464; [2]",3.93
same,pKd,"TJP3_3, O95049; [2]",below the threshold
same,pKd,"NHERF4_1, Q86UT5-2; [2]",below the threshold
same,pKd,"FRMPD3, Q5JV73; [2]",below the threshold
same,pKd,"LNX1_1, Q8TBB1; [2]",4.21
same,pKd,"CARD11, Q9BXL7; [2]",below the threshold
same,pKd,"GRIP2_6, Q9C0E4; [2]",below the threshold
same,pKd,"Inadl_6, Q8NI35; [2]",3.94
same,pKd,"GRIP1_5, Q9Y3R0; [2]",below the threshold
same,pKd,"DLG2_2, Q15700; [2]",4.01
same,pKd,"GRIP2_4, Q9C0E4; [2]",below the threshold
same,pKd,"LRRC7, Q96NW7; [2]",3.59
same,pKd,"APBA3_1, O96018; [2]",below the threshold
same,pKd,"LNX2_3, Q8N448; [2]",below the threshold
"SPLHSLETSL [ATP2B1, P20020]",pKd,"SNTB1, Q13884; [1]",4.69
same,pKd,"TJP1_3, Q07157; [1]",below the threshold
same,pKd,"HTRA3, P83110; [1]",below the threshold
same,pKd,"LAP2, Q96RT1; [1]",3.8
same,pKd,"MAGI3_2, Q5TCQ9; [1]",3.69
same,pKd,"LNX1_2, Q8TBB1; [1]",below the threshold
same,pKd,"PDZRN4_1, Q6ZMN7; [1]",5.24
same,pKd,"DVL3, Q92997; [1]",below the threshold
same,pKd,"GOPC, Q9HD26; [1]",4.13
same,pKd,"MPP7, Q5T2T1; [1]",below the threshold
same,pKd,"HTRA1, Q92743; [1]",3.75
same,pKd,"DLG4_3, P78352; [1]",4.01
same,pKd,"GORASP2, Q9H8Y8; [1]",below the threshold
same,pKd,"HTRA2, O43464; [1]",below the threshold
same,pKd,"TJP3_3, O95049; [1]",below the threshold
same,pKd,"NHERF4_1, Q86UT5-2; [1]",3.91
same,pKd,"FRMPD3, Q5JV73; [1]",3.59
same,pKd,"LNX1_1, Q8TBB1; [1]",below the threshold
same,pKd,"CARD11, Q9BXL7; [1]",below the threshold
same,pKd,"GRIP2_6, Q9C0E4; [1]",below the threshold
same,pKd,"Inadl_6, Q8NI35; [1]",4.31
same,pKd,"GRIP1_5, Q9Y3R0; [1]",below the threshold
same,pKd,"DLG2_2, Q15700; [1]",4.18
same,pKd,"GRIP2_4, Q9C0E4; [1]",below the threshold
same,pKd,"LRRC7, Q96NW7; [1]",3.58
same,pKd,"APBA3_1, O96018; [1]",3.47
same,pKd,"LNX2_3, Q8N448; [1]",below the threshold
"SSSNSEDTEM [NHERF3, Q5T2W1]",pKd,"SNTB1, Q13884; [2]",below the threshold
same,pKd,"TJP1_3, Q07157; [2]",below the threshold
same,pKd,"HTRA3, P83110; [2]",below the threshold
same,pKd,"LAP2, Q96RT1; [2]",below the threshold
same,pKd,"MAGI3_2, Q5TCQ9; [2]",below the threshold
same,pKd,"LNX1_2, Q8TBB1; [2]",below the threshold
same,pKd,"PDZRN4_1, Q6ZMN7; [2]",below the threshold
same,pKd,"DVL3, Q92997; [2]",below the threshold
same,pKd,"GOPC, Q9HD26; [2]",below the threshold
same,pKd,"MPP7, Q5T2T1; [2]",below the threshold
same,pKd,"HTRA1, Q92743; [2]",below the threshold
same,pKd,"DLG4_3, P78352; [2]",below the threshold
same,pKd,"GORASP2, Q9H8Y8; [2]",below the threshold
same,pKd,"HTRA2, O43464; [2]",below the threshold
same,pKd,"TJP3_3, O95049; [2]",below the threshold
same,pKd,"NHERF4_1, Q86UT5-2; [2]",below the threshold
same,pKd,"FRMPD3, Q5JV73; [2]",below the threshold
same,pKd,"LNX1_1, Q8TBB1; [2]",below the threshold
same,pKd,"CARD11, Q9BXL7; [2]",below the threshold
same,pKd,"GRIP2_6, Q9C0E4; [2]",below the threshold
same,pKd,"Inadl_6, Q8NI35; [2]",below the threshold
same,pKd,"GRIP1_5, Q9Y3R0; [2]",below the threshold
same,pKd,"DLG2_2, Q15700; [2]",below the threshold
same,pKd,"GRIP2_4, Q9C0E4; [2]",below the threshold
same,pKd,"LRRC7, Q96NW7; [2]",below the threshold
same,pKd,"APBA3_1, O96018; [2]",below the threshold
same,pKd,"LNX2_3, Q8N448; [2]",below the threshold
